Measurements taken from patent publication US20220143185A1, “ORALLY ACTIVE SMALL MOLECULE INHIBITOR OF PAI-1” (Northwestern University, priority 2019, published 2022).
Blank lines part the entries; values can stand above or below the molecule they belong to.

Tests used:
PCSK9 [1] = biological target: T1, PCSK9 (Homo sapiens, UniProt Q8NBP7)
PCSK9 [2] = biological target: T1, PCSK9; assay: Plasma PCSK9 and PAI-1 levels in hypercholesterolemic patients treated with PCSK9 monoclonal antibodies; type: in vivo; set-up: from tissue; host or cells: plasma of hypercholesterolemic patients; conditions: before vs during treatment; for plasma PAI-1 levels: n=28, p=0.0029
Protocol: Plasma samples from hypercholesterolemic patients were obtained from the OHSU Center for Preventive Cardiology Registry and Biorepository, approved by OHSU Institutional Review Board (17329).
Total cholesterol was quantified in the murine plasma using an enzymatic determination (Pointe Scientific, Cat #C7510). The lipoprotein profile of the murine plasma samples was assessed running a fast-phase liquid chromatography (FPLC), in brief 100 μL of plasma (from one animal or a pool of several samples of the same conditions) were loaded to a Superose 6 column (GE HealthCare, Cat #29-0915-96) at a flow rate of 0.5 mL/min in running buffer (0.15M NaCl, 0.01M Na2HPO4 and 1 mM EDTA). Fractions were collected every minute for 41 minutes and analyzed for cholesterol concentrations as described above. Murine plasma PCSK9 levels were determined using an ELISA kit (MBL International, Cat #CY-80781). Murine PAI-1 levels were quantified using an ELISA kit (Molecular Innovations, Cat #MPAIKT-TOT). Murine PAI-1 activity levels were quantified by ELISA (Molecular Innovations, Cat #MPAIKT). Human PAI-1 levels were quantified by ELISA (Molecular Innovations, Cat #HPAIKT-TOT).
PAI-1 and PCSK9 levels were also quantified in plasma samples obtained from a human cohort with and without heart failure with preserved ejection fraction (HFpEF). There was again a positive correlation between PAI-1 and PCSK9 levels in these patients, similar to that in mice and in the Amish kindred (FIG. 19D, p<0.0001; R=0.351).

Molecule: recombinant human low molecular weight urokinase
proteolytic degradation of PCSK9 in vitro (Western blot for PCSK9, silver stain) (PCSK9 [1]): efficiently promoted the proteolytic degradation of recombinant human PCSK9

total plasma PCSK9 levels (PCSK9 [2]): large increase
plasma PAI-1 levels (PCSK9 [2]): significant reduction
Molecule: alirocumab

total plasma PCSK9 levels (PCSK9 [2]): large increase
plasma PAI-1 levels (PCSK9 [2]): significant reduction
B1: evolocumab (antibody, chains of the INN, looked up, V domains shown)
VH: EVQLVQSGAEVKKPGASVKVSCKASGYTLTSYGISWVRQAPGQGLEWMGWVSFYNGNTNYAQKLQGRGTMTTDPSTSTAYMELRSLRSDDTAVYYCARGYGMDVWGQGTTVTVSS
VL: ESALTQPASVSGSPGQSITISCTGTSSDVGGYNSVSWYQQHPGKAPKLMIYEVSNRPSGVSNRFSGSKSGNTASLTISGLQAEDEADYYCNSYTSTSMVFGGGTKLTVL
